Experimental data taken from US20230002480A1.

How the values were obtained:
Assay in all cases: cell-based or functional assay
[1] = target: HIV-1 Env of pseudovirus 1012_11_TC21_3257 (HIV-1)
[2] = target: HIV-1 Env of pseudovirus 1054_07_TC4_1499 (HIV-1)
[3] = target: HIV-1 Env of pseudovirus 1394C9G1(Rev-) (HIV-1)
[4] = target: HIV-1 Env of pseudovirus 3365.v2.c2 (HIV-1)
[5] = target: HIV-1 Env of pseudovirus 3415.v1.c1 (HIV-1)
[6] = target: HIV-1 Env of pseudovirus 620345.c01 (HIV-1)
[7] = target: HIV-1 Env of pseudovirus 7030102001E5(Rev-) (HIV-1)
[8] = target: HIV-1 Env of pseudovirus BF1266.431a (HIV-1)
[9] = target: HIV-1 Env of pseudovirus BJOX009000.02.4 (HIV-1)
[10] = target: HIV-1 Env of pseudovirus CAP210.2.00.E8 (HIV-1)
[11] = target: HIV-1 Env of pseudovirus CAP45.2.00.G3 (HIV-1)
[12] = target: HIV-1 Env of pseudovirus Ce0393_C3 (HIV-1)
[13] = target: HIV-1 Env of pseudovirus Ce2060_G9 (HIV-1)
[14] = target: HIV-1 Env of pseudovirus Q259.d2.17 (HIV-1)
[15] = target: HIV-1 Env of pseudovirus T250-4 (HIV-1)
[16] = target: HIV-1 Env of pseudovirus T255-34 (HIV-1)
[17] = target: HIV-1 Env of pseudovirus TRO.11 (HIV-1)
[18] = target: HIV-1 Env of pseudovirus WEAU_d15_410_787 (HIV-1)
[19] = target: HIV-1 Env of pseudovirus X2088_c9 (HIV-1)
[20] = target: HIV-1 Env of pseudovirus ZM214M.PL15 (HIV-1)
[21] = target: HIV-1 Env of pseudovirus ZM249M.PL1 (HIV-1)

B1: N49P22 (antibody, V domains shown)
V domain 1: HIQLLQSGPQVKKSGDTVRISCETSGYNFVDSRIHWVRQTPEKRLRWMGWINPLQGGVNYAPEFQGRIRMTRDTFIDTVYVDLSGLTPADTAYYYCARGIDGKSYPFHFWGHGTRVTVFS
V domain 2: RFALTQPASVSGSPGQTITITCAGGSVSWFHFPPGKTPRLIIYESSKRPSGVSPRFSGSQSGSTASLIISGLQSDDEGTYFCSILEFFGRGTLVTVLS
IC50 [1]: 15.7 µg/mL | IC80 [1]: > 50 µg/mL | MPI [1]: 53 | IC50 [2]: 0.654 µg/mL | IC80 [2]: 2.89 µg/mL | MPI [2]: 100 | IC50 [3]: > 50 µg/mL | IC80 [3]: > 50 µg/mL | MPI [3]: 35 | IC50 [4]: 0.254 µg/mL | IC80 [4]: 0.857 µg/mL | MPI [4]: 98 | IC50 [5]: 0.198 µg/mL | IC80 [5]: 1.41 µg/mL | MPI [5]: 96 | IC50 [6]: > 50 µg/mL | IC80 [6]: > 50 µg/mL | MPI [6]: 0 | IC50 [7]: > 50 µg/mL | IC80 [7]: > 50 µg/mL | MPI [7]: 21 | IC50 [8]: > 50 µg/mL | IC80 [8]: > 50 µg/mL | MPI [8]: 0 | IC50 [9]: 17.3 µg/mL | IC80 [9]: > 50 µg/mL | MPI [9]: 64 | IC50 [10]: > 50 µg/mL | IC80 [10]: > 50 µg/mL | MPI [10]: 6 | IC50 [11]: > 50 µg/mL | IC80 [11]: > 50 µg/mL | MPI [11]: 0 | IC50 [12]: > 50 µg/mL | IC80 [12]: > 50 µg/mL | MPI [12]: 12 | IC50 [13]: > 50 µg/mL | IC80 [13]: > 50 µg/mL | MPI [13]: 19 | IC50 [14]: > 50 µg/mL | IC80 [14]: > 50 µg/mL | MPI [14]: 15 | IC50 [15]: > 50 µg/mL | IC80 [15]: > 50 µg/mL | MPI [15]: 5 | IC50 [16]: 38.8 µg/mL | IC80 [16]: > 50 µg/mL | MPI [16]: 55 | IC50 [17]: 0.283 µg/mL | IC80 [17]: 1.36 µg/mL | MPI [17]: 99 | IC50 [18]: 1.54 µg/mL | IC80 [18]: > 50 µg/mL | MPI [18]: 76 | IC50 [19]: > 50 µg/mL | IC80 [19]: > 50 µg/mL | MPI [19]: 8 | IC50 [20]: > 50 µg/mL | IC80 [20]: > 50 µg/mL | MPI [20]: 25 | IC50 [21]: > 50 µg/mL | IC80 [21]: > 50 µg/mL | MPI [21]: 0

B2: N49P23 (antibody, V domains shown)
VH: QVRLVQSGAGARKTGASMKLSCSTSGYTFTTHHGHFINWVRQARGQGLEWMGWMNPMTGQMNIEGKFQGRVTLTRDIYSDTAYMEMTRLTTGDTGTYYCARGDFGQNYPFHYWGQGSLVIVSS
VL: LSALTQPASVSGSPGQSVTISCSGTNRYLVSWYQQHPDKAPKLIIYDDNKRPSGISDRFSASRPDDTASLTISGLQTGDEATYWCASYERFGGGTRLTVLS
IC50 [1]: 0.013 µg/mL | IC80 [1]: 0.085 µg/mL | MPI [1]: 100 | IC50 [2]: 0.272 µg/mL | IC80 [2]: 1.21 µg/mL | MPI [2]: 100 | IC50 [3]: > 50 µg/mL | IC80 [3]: > 50 µg/mL | MPI [3]: 34 | IC50 [4]: 0.017 µg/mL | IC80 [4]: 0.053 µg/mL | MPI [4]: 100 | IC50 [5]: 0.054 µg/mL | IC80 [5]: 0.19 µg/mL | MPI [5]: 100 | IC50 [6]: > 50 µg/mL | IC80 [6]: > 50 µg/mL | MPI [6]: 0 | IC50 [7]: 0.172 µg/mL | IC80 [7]: 0.797 µg/mL | MPI [7]: 100 | IC50 [8]: 0.083 µg/mL | IC80 [8]: 0.44 µg/mL | MPI [8]: 99 | IC50 [9]: > 50 µg/mL | IC80 [9]: > 50 µg/mL | MPI [9]: 8 | IC50 [10]: > 50 µg/mL | IC80 [10]: > 50 µg/mL | MPI [10]: 2 | IC50 [11]: > 50 µg/mL | IC80 [11]: > 50 µg/mL | MPI [11]: 0 | IC50 [12]: > 50 µg/mL | IC80 [12]: > 50 µg/mL | MPI [12]: 29 | IC50 [13]: 0.18 µg/mL | IC80 [13]: 0.849 µg/mL | MPI [13]: 99 | IC50 [14]: 0.362 µg/mL | IC80 [14]: 7.79 µg/mL | MPI [14]: 91 | IC50 [15]: > 50 µg/mL | IC80 [15]: > 50 µg/mL | MPI [15]: 0 | IC50 [16]: > 50 µg/mL | IC80 [16]: > 50 µg/mL | MPI [16]: 20 | IC50 [17]: 0.094 µg/mL | IC80 [17]: 0.336 µg/mL | MPI [17]: 100 | IC50 [18]: 0.009 µg/mL | IC80 [18]: 0.031 µg/mL | MPI [18]: 100 | IC50 [19]: > 50 µg/mL | IC80 [19]: > 50 µg/mL | MPI [19]: 10 | IC50 [20]: 0.061 µg/mL | IC80 [20]: 0.614 µg/mL | MPI [20]: 100 | IC50 [21]: > 50 µg/mL | IC80 [21]: > 50 µg/mL | MPI [21]: 2
